From US20220098306A1 (published 2022)
Where two headings read alike, the source gives them in different places.

T1: B7H3 (antigen of the affinity statements) (human, UniProt Q5ZPR3 29-466)
T1 chain: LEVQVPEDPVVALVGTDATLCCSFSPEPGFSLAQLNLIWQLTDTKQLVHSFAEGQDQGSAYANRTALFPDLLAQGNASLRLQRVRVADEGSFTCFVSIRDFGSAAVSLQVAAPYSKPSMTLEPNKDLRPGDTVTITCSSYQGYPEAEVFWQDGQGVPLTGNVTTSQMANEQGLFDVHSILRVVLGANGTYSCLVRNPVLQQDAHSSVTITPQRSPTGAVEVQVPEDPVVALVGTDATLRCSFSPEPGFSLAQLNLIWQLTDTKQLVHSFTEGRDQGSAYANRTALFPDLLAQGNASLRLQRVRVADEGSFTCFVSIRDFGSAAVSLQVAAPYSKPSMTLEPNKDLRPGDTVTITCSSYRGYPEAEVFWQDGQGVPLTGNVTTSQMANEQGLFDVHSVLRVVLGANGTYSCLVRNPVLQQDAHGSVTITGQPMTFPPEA

T2: cynomolgus B7H3
T2 chain: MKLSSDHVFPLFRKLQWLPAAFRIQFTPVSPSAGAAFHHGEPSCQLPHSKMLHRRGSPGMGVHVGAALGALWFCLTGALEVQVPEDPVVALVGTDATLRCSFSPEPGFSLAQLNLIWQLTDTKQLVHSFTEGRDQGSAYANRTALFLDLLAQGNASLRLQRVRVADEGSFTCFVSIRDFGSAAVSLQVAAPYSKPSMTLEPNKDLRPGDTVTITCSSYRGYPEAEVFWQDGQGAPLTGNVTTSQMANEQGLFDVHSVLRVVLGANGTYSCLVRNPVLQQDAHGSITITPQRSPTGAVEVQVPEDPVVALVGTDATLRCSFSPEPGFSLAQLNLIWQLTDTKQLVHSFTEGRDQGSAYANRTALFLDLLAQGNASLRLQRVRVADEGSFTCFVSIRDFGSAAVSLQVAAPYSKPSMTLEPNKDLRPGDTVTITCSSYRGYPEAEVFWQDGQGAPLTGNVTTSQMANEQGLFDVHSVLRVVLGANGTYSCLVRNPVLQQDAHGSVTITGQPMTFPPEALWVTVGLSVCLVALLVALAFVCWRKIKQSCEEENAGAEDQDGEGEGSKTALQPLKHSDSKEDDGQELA


How the values were obtained:
[1] = target: T1, B7H3 (antigen of the affinity …)
[2] = target: T2, cynomolgus B7H3
[3] = target: T3, CD28 (antigen of the affinity determinations) (human, UniProt P10747 19-152)
[4] = target: T1, B7H3 (antigen of the affinity …); assay: -; monovalent KD
[5] = target: T3, CD28 (antigen of the affinity …); assay: -; Fab, 2+1 CLC

| Binder | Kd [1] [nM] | Kd [2] [nM] | Kd [3] [nM] | Kd [4] [nM] | Kd [5] [nM] |
| --- | --- | --- | --- | --- | --- |
| 3C4_H1_L1.1 (antibody, V domains shown) VH: EVQLLESGGGLVQPGGSLRLSCAVSGFSLSSYGVIWVRQAPGKGLEYVSWVSSGGSTNYASSVKGRFTISRDTSKNTVYLQMNSLRAEDTAVYFCARGATNSGTDIWGPGTLVTVSS VL: DIVMTQSPSSLSASVGDRVTITCRASQSINSWLSWYQQKPGKPPKLLIYGASNLASGVPSRFKGSGSGTDFTLTISSLQPEDFATYYCQNNYGIIAAGATFGGGTKVEIK | 29.7 | 27.2 | – | – | – |
| 38E2_H2_L1.1 (antibody, V domains shown) VH: EVQLVESGGGLVKPGGSLRLSCAASGFSFSVGYYMCWVRQAPGKGLEWVSCIYVGSGSSGSTYYASVKGRFTISSDTAKTSVYLQMNSLRAEDTAVYFCARTAGSDWRLDLWGQGTLVTVSS VL: DIVMTQSPSSLSASVGDRVTITCRASQSIANELSWYQQKPGKPPKLLIYRASTLTSGVPSRFKGSGSGTDFTLTISSLQPEDFATYYCQSTYNGRAIGFGGGTKVEIK | 0.5 | 1.4 | – | – | – |
| XENP34732 (bispecific antibody) heavy: EVQLLESGGGLVQPGGSLRLSCAASGFTFSNYYMAWVRQAPGKGLEWVSSISTGGGSTYYRDSVKGRFTISRDNSKSTLYLQMNSLRAEDTAVYYCTTDLSAIAATPFAYWGQGTLVTVSSASTKGPSVFPLAPSSKSTSGGTAALGCLVKDYFPEPVTVSWNSGALTSGVHTFPAVLQSSGLYSLSSVVTVPSSSLGTQTYICNVNHKPSDTKVDKKVEPKSCDKTHTCPPCPAPPVAGPSVFLFPPKPKDTLMISRTPEVTCVVVDVKHEDPEVKFNWYVDGVEVHNAKTKPREEEYNSTYRVVSVLTVLHQDWLNGKEYKCKVSNKALPAPIEKTISKAKGQPREPQVYTLPPSREEMTKNQVSLTCDVSGFYPSDIAVEWESDGQPENNYKTTPPVLDSDGSFFLYSKLTVDKSRWEQGDVFSCSVLHEALHSHYTQKSLSLSPGK scFv-Fc: not shown light: DIQMTQSPSSLSASVGDRVTITCRASQNIYTSLAWYQQKPGKAPKLLIYNAHSLQTGIPSRFSGSGSGADFTLTISSLQPEDFATYFCQQYYSGLTFGSGTKLEIKRTVAAPSVFIFPPSDEQLKSGTASVVCLLNNFYPREAKVQWKVDNALQSGNSQESVTEQDSKDSTYSLSSTLTLSKADYEKHKVYACEVTHQGLSSPVTKSFNRGEC | – | – | 370 | 8.1 | – |
| H1.14_L1 (XENP31398) (antibody, V domains shown) VH: EVQLLESGGGLVQPGGSLRLSCAASGFTFSSYYMSWVRQAPGKGLEWVSTISGSGDSTYYADSVKGRFTISRDNSKNTLYLQMNSLRAEDTAVYYCAKSGPGLRQVGFDYWGQGTLVTVSS VL: not shown | – | – | – | – | 62.8 |
| 2E4A3_H1.3_1A7_L1 (antibody, V domains shown) VH: QVQLVQSGAEVKKPGASVKVSCKASGYIFTNHYMHWVRQAPGQGLEWMGIISPSAGSTDYAQKFQGRVTMTRDTSTSTVYMELSSLRSEDTAVYYCARGGGSSPRLDYWGQGTLVTVSS VL: not shown | 12 | 7 | – | – | – |
| 2E4A3_H1.22_L1 (antibody, V domains shown) VH: QVQLVQSGAEVKKPGASVKVSCKASGYIFTNNYMHWVRQAPGQGLEWMGIISPSVGRTAYAQKFQGRVTMTRDTSTSTVYMELSSLRSEDTAVYYCARGGGSSPRLDYWGQGTLVTVSS VL: not shown | 6.1 | 5.3 | – | – | – |
| 2E4A3_H1.22_1A7_L1 (antibody, V domains shown) VH: QVQLVQSGAEVKKPGASVKVSCKASGYIFTNNYMHWVRQAPGQGLEWMGIISPSVGRTAYAQKFQGRVTMTRDTSTSTVYMELSSLRSEDTAVYYCARGGGSSPRLDYWGQGTLVTVSS VL: not shown | 7.6 | 4.3 | – | – | – |
| XENP34398 (bispecific antibody) heavy 1: EVQLLESGGGLVQPGGSLRLSCAASGFTFSSYYMSWVRQAPGKGLEWVSTISESGDSTYYADSVKGRFTISRDNSKNTLYLQMNSLRAEDTAVYYCAKSGPGLRQVGFDYWGQGTLVTVSSASTKGPSVFPLAPSSKSTSGGTAALGCLVKDYFPEPVTVSWNSGALTSGVHTFPAVLQSSGLYSLSSVVTVPSSSLGTQTYICNVNHKPSDTKVDKKVEPKSCDKTHTCPPCPAPPVAGPSVFLFPPKPKDTLMISRTPEVTCVVVDVKHEDPEVKFNWYVDGVEVHNAKTKPREEEYNSTYRVVSVLTVLHQDWLNGKEYKCKVSNKALPAPIEKTISKAKGQPREPQVYTLPPSREEMTKNQVSLTCDVSGFYPSDIAVEWESDGQPENNYKTTPPVLDSDGSFFLYSKLTVDKSRWEQGDVFSCSVLHEALHSHYTQKSLSLSPGK heavy 2: QVQLVQSGAEVKKPGASVKVSCKASGYIFTNNYMHWVRQAPGQGLEWMGIISPSVGRTAYAQKFQGRVTMTRDTSTSTVYMELSSLRSEDTAVYYCARGGGSSPRLDYWGQGTLVTVSSASTKGPSVFPLAPSSKSTSGGTAALGCLVKDYFPEPVTVSWNSGALTSGVHTFPAVLQSSGLYSLSSVVTVPSSSLGTQTYICNVNHKPSNTKVDKKVEPKSCGKPGSGKPGSQVQLVQSGAEVKKPGASVKVSCKASGYIFTNNYMHWVRQAPGQGLEWMGIISPSVGRTAYAQKFQGRVTMTRDTSTSTVYMELSSLRSEDTAVYYCARGGGSSPRLDYWGQGTLVTVSSASTKGPSVFPLAPSSKSTSGGTAALGCLVKDYFPEPVTVSWNSGALTSGVHTFPAVLQSSGLYSLSSVVTVPSSSLGTQTYICNVNHKPSNTKVDKKVEPKSCDKTHTCPPCPAPPVAGPSVFLFPPKPKDTLMISRTPEVTCVVVDVKHEDPEVKFNWYVDGVEVHNAKTKPREEQYNSTYRVVSVLTVLHQDWLNGKEYKCKVSNKALPAPIEKTISKAKGQPREPQVYTLPPSREQMTKNQVKLTCLVKGFYPSDIAVEWESNGQPENNYKTTPPVLDSDGSFFLYSKLTVDKSRWQQGNVFSCSVLHEALHSHYTQKSLSLSPGK light: not shown | – | – | 63 | 7.6 | – |
| 6A1_H1L1 (antibody, V domains shown) VH: EVQLLESGGGLVQPGGSLRLSCAASGFTFSNYYMAWVRQAPGKGLEWVSSISTGGGSTYYRDSVKGRFTISRDNSKSTLYLQMNSLRAEDTAVYYCTTDLSAIAATPFAYWGQGTLVTVSS VL: DIQMTQSPSSLSASVGDRVTITCRASQNIYTSLAWYQQKPGKAPKLLIYNAHSLQTGIPSRFSGSGSGADFTLTISSLQPEDFATYFCQQYYSGLTFGSGTKLEIK | 8.1 | 4.2 | – | – | – |
| XENP35153 (bispecific antibody) heavy: EVQLLESGGGLVQPGGSLRLSCAVSGFSLSSYGVIWVRQAPGKGLEYVSWVSSGGSTNYASSVKGRFTISRDTSKNTVYLQMNSLRAEDTAVYFCARGATNSGTDIWGPGTLVTVSSASTKGPSVFPLAPSSKSTSGGTAALGCLVKDYFPEPVTVSWNSGALTSGVHTFPAVLQSSGLYSLSSVVTVPSSSLGTQTYICNVNHKPSDTKVDKKVEPKSCDKTHTCPPCPAPPVAGPSVFLFPPKPKDTLMISRTPEVTCVVVDVKHEDPEVKFNWYVDGVEVHNAKTKPREEEYNSTYRVVSVLTVLHQDWLNGKEYKCKVSNKALPAPIEKTISKAKGQPREPQVYTLPPSREEMTKNQVSLTCDVSGFYPSDIAVEWESDGQPENNYKTTPPVLDSDGSFFLYSKLTVDKSRWEQGDVFSCSVLHEALHSHYTQKSLSLSPGK scFv-Fc: not shown light: DIVMTQSPSSLSASVGDRVTITCRASQSINSWLSWYQQKPGKPPKLLIYGASNLASGVPSRFKGSGSGTDFTLTISSLQPEDFATYYCQNNYGIIAAGATFGGGTKVEIKRTVAAPSVFIFPPSDEQLKSGTASVVCLLNNFYPREAKVQWKVDNALQSGNSQESVTEQDSKDSTYSLSSTLTLSKADYEKHKVYACEVTHQGLSSPVTKSFNRGEC | – | – | 360 | 0.5 | – |
